1 substance from patent publication US8207293B2, “Peptides derived from maurocalcine used as vectors for intracellular addressing of molecules of interest” (Commissariat a l'Energie Atomique, priority 2004, dated 2012) can be followed below.

Test [1] addresses T1, RyR1 receptor (Oryctolagus cuniculus, UniProt P11716).
T1 construct: from tissue; host or cells: heavy sarcoplasmic reticulum vesicles (skeletal muscle implied)
Briefly: Tritiated ryanodine binding assay on heavy sarcoplasmic reticulum vesicles. As to conditions: 100 nM complex. As for the experimental part:
(§1) The heavy sarcoplasmic reticulum vesicles are prepared according to the method of Kim et al. (J. Biol. Chem., 1983, 258, 9662-9668) modified as described in Marty et al. (J. Biol. Chem., 2000, 275, 8206-8212). The protein concentration is measured by the Biuret method.
The heavy sarcoplasmic reticulum vesicles (1 mg/ml) are incubated at 37° C. for 2 hours and 30 min, in reaction buffer comprising 5 nM [^3H]-ryanodine, 150 mM NaCl, 2 mM EGTA, 2 mM Ca^2+ (pCa=5) and 20 mM Hepes, pH 7.4. Maurocalcine, the maurocalcine-derived peptides and their biotinylated derivatives are added before the addition of the heavy sarcoplasmic reticulum vesicles. The [^3H]-ryanodine bound to the heavy sarcoplasmic vesicles is measured by filtration through Whatmann GF/B filters, followed by three washes with 5 ml of ice-cold washing buffer (150 mM NaCl, 20 mM Hepes, pH 7.4). The [^3H]-ryanodine retained on the filters is measured by liquid scintillation. The nonspecific binding is measured in the presence of […] ryanodine (20 μM). The results are given in the form of means±standard deviation. Each experiment is carried out in triplicate and repeated at least twice.

In test [2] the test system is HEK293 cells. Kind of test: Flow cytometry analysis of cellular penetration of complexes (trypsin/heparin treatment). Type of test: cell-based, human. As to conditions: 10 nM to 1 μM complexes. Here is the method: The cells are incubated with maurocalcine and the derived peptides, biotinylated and complexed with […], at the final concentration of 100 nM in PBS, in the dark and at ambient temperature for 1 hour. After 2 washes in PBS (PBS, in mM: […], 6.84 Na2HPO4, 3.16 NaH2PO4, pH 7.2), and the cells were treated with trypsin (1 mg/ml, INVITROGEN), for 10 min at 37° C., in order to remove the extracellular complexes and the plasma-membrane-bound complexes. After the incubation with trypsin, the cell suspension was centrifuged at 500 g and the cells were resuspended in PBS containing 1 μg/ml of propidium iodide (SIGMA). […] The analysis was carried out on live cells, using a flow cytometer (FACScalibur, BECTON DICKINSON). The data were recorded and analyzed using appropriate software (CellQuest, BD BIOSCIENCES). The live cells were sorted according to their size and their granulosity (forward/side scattering), over a total of 10 000 events.
The analysis is carried out as described in Example 1. For the heparin treatment experiments, the complexes were prepared in a heparin solution (bovine intestine heparin, sodium salt, SIGMA) and the cells were washed twice with the heparin solution, before and after incubation with the complexes prepared in the same heparin solution.
The cellular penetration was analyzed by flow cytometry, on cells incubated with the MCab/Strept-Cy3 complexes, and then treated with trypsin, so as to remove the complexes bound to the plasma membrane by means of lipids, specific receptors or heparan sulfate glycosaminoglycan (HPSG). It has been shown that this method makes it possible to effectively study the entry of penetrating peptides into cells (Richard et al., J. Biol. Chem., 2003, 278, 585-590).
(Flow cytometry measures light scatter and fluorescence of single cells or particles in a stream.)

The subject of test [3] is undifferentiated L6 cells. Kind of test: Penetration kinetics in live undifferentiated L6 cells, confocal microscopy. It counts as cell-based, rat. Here is the method:
The L6 rat myogenic cell line (clone C5, EACC) is cultured in DMEM medium supplemented with 15% fetal bovine serum (LIFE TECHNOLOGIES) and 1% penicillin-streptomycin (Invitrogen).
The live cells were incubated with maurocalcine and the derived peptides, biotinylated and complexed with streptavidin-cyanin 3, at the final concentration of 100 nM in PBS, at ambient temperature in freshly changed culture medium, on the platform of an upright microscope (Nikon Eclipse 600 FN, equipped with a water-immersion objective (×40); aperture 0.8) and a confocal head (Nikon PCM 2000), or else with a Leica TCS-SP2 microscope, equipped with an objective (×100), according to the “XYZt” mode.
The penetration kinetics of the maurocalcine and of the derived peptides, biotinylated in complex with streptavidin-Cy3, was initiated by injecting 100 nM of the complex into the culture medium. The Cy3 fluorescence was excited by means of a 543 nm wavelength of an […] laser. The light emission was filtered (595±35 nm filter). The images were recorded and analyzed using the EZ2000 software (Nikon). The quantitative analysis of the relative fluorescence was carried out on the overall signal of all the cells, using appropriate software (Leica).

Test [4] concerns the target T1, RyR1 receptor. Kind of test: Ca2+ release by heavy sarcoplasmic reticulum vesicles (antipyrylazo III). It counts as biochemical. The following applies: 100 nM complex. As for the experimental part: as §1
The Ca^2+ release by the heavy sarcoplasmic reticulum vesicles was measured using a Ca^2+-sensitive dye, antipyrylazo III. The absorbance was measured at 710 nm, using a diode-array spectrophotometer (MOS-200, Optical System, BIOLOGIC). The heavy sarcoplasmic reticulum vesicles (50 μg) were actively loaded with Ca^2+, at 37° C., in 2 ml of buffer containing 100 mM KCl, 7.5 mM sodium pyrophosphate, 20 mM MOPS, pH 7.0, to which 250 μM of antipyrylazo III, 1 mM ATP/MgCl2, 5 mM phosphocreatine and 12 μg/ml of creatine phosphokinase had been added (Palade, J. Biol. Chem., 1987, 262, 6142-6148).
The calcium loading begins with sequential additions of 50 μM and 20 μM CaCl2.
Under these loading conditions, no calcium-induced calcium release interferes with the observations. At the end of each experiment, the Ca^2+ remaining in the vesicles is measured by the addition of 4 μM of Ca^2+ ionophore, […] (Sigma), and the absorbance signal is calibrated by means of two consecutive additions of 20 μM CaCl2.

T1 sequence (P11716 whole entry): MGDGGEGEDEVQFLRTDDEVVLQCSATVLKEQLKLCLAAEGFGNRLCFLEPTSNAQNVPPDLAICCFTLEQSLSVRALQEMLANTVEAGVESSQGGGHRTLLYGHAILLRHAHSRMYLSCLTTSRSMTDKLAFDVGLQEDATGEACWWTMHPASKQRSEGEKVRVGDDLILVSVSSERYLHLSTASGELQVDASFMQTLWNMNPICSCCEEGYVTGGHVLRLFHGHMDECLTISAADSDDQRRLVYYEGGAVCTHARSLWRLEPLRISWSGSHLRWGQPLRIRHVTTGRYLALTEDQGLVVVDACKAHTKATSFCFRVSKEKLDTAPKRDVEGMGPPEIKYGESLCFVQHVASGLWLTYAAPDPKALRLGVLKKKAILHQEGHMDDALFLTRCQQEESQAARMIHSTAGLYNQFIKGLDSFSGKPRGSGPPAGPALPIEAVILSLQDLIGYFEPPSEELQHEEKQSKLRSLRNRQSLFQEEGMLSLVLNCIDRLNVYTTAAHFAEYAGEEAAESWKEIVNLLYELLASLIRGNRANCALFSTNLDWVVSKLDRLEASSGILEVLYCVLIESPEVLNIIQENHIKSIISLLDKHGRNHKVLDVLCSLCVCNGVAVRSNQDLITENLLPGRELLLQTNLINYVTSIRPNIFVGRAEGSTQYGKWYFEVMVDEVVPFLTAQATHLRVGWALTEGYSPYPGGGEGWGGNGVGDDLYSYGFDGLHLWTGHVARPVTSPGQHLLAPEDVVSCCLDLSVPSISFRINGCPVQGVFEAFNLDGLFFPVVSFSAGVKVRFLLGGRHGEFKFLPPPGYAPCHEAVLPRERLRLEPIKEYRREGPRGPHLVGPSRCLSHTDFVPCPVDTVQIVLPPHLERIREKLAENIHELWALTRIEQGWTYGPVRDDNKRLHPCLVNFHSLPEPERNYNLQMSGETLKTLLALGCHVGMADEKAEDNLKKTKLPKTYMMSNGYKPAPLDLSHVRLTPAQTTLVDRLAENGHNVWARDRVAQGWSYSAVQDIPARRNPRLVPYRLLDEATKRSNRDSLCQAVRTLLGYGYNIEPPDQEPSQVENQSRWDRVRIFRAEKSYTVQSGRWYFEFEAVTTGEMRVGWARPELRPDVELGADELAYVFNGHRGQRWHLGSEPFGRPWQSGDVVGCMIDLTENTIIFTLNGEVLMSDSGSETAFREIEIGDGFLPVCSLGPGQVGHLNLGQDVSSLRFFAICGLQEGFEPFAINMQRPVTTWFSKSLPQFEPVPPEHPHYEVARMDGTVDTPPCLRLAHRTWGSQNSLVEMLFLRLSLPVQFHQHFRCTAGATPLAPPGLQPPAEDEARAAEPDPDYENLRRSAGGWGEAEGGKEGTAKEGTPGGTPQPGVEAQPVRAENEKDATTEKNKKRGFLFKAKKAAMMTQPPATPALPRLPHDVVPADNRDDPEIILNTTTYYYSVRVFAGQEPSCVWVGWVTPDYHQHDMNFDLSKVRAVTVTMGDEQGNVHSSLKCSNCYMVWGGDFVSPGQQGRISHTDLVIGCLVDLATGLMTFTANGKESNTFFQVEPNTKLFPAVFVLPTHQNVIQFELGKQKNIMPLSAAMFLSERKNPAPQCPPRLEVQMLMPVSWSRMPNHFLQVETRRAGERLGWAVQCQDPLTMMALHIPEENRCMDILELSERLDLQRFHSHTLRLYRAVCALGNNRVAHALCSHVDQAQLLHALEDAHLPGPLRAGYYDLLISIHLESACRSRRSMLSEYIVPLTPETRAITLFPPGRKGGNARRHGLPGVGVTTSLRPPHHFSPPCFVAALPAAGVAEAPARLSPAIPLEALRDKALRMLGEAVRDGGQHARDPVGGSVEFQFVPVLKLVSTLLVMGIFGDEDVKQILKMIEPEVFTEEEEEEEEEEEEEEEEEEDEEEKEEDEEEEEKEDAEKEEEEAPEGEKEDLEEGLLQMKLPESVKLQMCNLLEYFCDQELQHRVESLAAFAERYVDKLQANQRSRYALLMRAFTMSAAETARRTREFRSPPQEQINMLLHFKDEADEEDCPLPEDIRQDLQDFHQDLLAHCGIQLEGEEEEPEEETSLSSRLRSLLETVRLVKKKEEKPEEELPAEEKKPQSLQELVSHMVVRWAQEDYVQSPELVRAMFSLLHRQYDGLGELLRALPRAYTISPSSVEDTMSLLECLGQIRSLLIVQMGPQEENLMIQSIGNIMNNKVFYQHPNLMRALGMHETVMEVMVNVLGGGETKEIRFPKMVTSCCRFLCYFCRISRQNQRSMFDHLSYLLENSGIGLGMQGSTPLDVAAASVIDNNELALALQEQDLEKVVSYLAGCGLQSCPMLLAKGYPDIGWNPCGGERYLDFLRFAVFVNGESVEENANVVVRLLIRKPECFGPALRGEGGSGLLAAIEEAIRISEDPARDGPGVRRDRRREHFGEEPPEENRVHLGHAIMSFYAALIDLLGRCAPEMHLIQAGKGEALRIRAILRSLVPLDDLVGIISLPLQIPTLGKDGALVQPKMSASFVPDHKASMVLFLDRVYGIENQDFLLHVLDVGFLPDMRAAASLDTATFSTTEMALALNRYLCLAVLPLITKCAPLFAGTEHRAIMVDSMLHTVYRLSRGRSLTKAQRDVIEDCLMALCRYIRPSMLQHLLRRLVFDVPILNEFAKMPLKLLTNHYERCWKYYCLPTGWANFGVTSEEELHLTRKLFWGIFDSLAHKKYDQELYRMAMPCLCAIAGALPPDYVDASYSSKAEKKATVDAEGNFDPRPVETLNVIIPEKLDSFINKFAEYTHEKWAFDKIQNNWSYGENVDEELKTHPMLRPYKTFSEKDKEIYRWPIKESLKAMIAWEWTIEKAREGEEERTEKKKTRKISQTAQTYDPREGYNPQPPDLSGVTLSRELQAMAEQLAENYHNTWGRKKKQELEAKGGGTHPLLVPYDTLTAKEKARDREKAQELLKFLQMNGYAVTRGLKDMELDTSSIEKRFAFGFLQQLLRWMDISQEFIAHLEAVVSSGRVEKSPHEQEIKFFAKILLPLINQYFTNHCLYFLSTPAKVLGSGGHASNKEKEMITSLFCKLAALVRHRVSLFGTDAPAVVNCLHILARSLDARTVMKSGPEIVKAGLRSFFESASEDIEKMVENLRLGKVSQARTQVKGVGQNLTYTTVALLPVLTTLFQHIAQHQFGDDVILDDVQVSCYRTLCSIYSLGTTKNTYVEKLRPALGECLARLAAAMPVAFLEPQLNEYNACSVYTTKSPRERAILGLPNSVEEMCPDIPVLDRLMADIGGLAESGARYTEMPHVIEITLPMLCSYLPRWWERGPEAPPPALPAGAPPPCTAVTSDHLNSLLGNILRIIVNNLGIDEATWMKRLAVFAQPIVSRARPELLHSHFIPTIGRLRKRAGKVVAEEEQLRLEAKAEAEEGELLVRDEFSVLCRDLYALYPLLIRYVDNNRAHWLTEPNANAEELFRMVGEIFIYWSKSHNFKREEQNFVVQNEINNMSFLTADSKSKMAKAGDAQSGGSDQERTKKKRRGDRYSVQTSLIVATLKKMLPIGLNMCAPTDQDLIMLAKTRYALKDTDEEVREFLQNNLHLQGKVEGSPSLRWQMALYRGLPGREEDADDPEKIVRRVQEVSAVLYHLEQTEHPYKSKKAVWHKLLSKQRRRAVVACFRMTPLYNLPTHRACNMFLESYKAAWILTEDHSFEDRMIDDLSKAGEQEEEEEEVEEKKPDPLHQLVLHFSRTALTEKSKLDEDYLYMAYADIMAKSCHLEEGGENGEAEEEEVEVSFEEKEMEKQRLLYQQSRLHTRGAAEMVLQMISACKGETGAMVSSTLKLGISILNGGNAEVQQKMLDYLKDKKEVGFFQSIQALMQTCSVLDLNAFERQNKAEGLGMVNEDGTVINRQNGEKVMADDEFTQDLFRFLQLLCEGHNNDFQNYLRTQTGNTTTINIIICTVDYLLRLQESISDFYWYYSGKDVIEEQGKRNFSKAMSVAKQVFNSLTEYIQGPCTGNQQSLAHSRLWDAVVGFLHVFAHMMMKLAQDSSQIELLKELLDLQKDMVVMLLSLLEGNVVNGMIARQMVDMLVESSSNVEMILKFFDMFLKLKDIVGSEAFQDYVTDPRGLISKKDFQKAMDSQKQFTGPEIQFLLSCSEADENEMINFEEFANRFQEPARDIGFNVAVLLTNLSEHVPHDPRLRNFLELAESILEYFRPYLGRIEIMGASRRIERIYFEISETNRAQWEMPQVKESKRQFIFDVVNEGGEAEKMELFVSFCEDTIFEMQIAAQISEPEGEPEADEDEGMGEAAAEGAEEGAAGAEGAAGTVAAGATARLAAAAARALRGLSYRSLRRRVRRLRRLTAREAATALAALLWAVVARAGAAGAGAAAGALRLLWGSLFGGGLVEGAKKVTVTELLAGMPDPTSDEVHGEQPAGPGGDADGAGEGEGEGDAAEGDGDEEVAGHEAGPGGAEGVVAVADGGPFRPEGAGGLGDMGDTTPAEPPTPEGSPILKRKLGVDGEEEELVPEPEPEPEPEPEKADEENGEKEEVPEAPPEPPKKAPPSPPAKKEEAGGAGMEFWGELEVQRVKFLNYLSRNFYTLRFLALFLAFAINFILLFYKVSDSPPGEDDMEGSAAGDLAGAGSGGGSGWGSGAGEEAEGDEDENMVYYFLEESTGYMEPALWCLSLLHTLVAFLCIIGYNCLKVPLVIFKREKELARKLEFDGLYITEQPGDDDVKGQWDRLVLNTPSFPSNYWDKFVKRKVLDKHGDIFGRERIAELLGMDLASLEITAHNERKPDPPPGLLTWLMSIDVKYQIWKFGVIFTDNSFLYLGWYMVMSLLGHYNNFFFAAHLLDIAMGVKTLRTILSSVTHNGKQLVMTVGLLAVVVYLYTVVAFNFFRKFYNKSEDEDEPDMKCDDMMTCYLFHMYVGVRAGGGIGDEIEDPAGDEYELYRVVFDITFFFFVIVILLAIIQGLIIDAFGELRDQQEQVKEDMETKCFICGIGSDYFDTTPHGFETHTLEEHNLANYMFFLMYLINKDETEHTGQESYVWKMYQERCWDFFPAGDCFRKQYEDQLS

Turning to “MCab/Strept-Cy3: biotinylated maurocalcine, complexed with cyanin-3-labeled streptavidin”, the “stimulation of [3H]-ryanodine binding to heavy sarcoplasmic reticulum vesicles” value in test [1] is “conserve the ability to stimulate [^3H]-ryanodine binding”. For the same substance, the saturability of penetration entry in test [2] was “cannot be saturated”. In addition, in test [3] (100 nM), the “time of fluorescence peak in the plasma membrane (ROI-1)” value was found to be 10 min. The “time at which labeling appears after addition” value in test [3] (100 nM in extracellular medium) is given as 3 min. Besides, in test [4], the “efficiency of Ca2+ release in comparison with maurocalcine alone” value is reported as “slightly reduced efficiency” and the “induction of Ca2+ release from sarcoplasmic reticulum vesicles” value is reported as “induce Ca^2+ release”.
